Experiments:
GFP-14-3-3β = GFP-14-3-3β co-IP with LC-MS/MS, untreated GFP-14-3-3β versus GFP control (14-3-3 interactome); assay type: binding, human; details: pairwise comparison untreated vs GFP
[1] = system: GFP-14-3-3β and its binding proteins; experiment: GFP-14-3-3β co-IP with LC-MS/MS label-free quantification, untreated versus PP1c-treated; set-up: species or system human; details: pairwise comparison PP1 vs untreated
[2] = log2 difference, label-free quantification, 3 replicates each

Row | Molecule | Difference (log2), untreated vs GFP (GFP-14-3-3β; [2]) | Difference (log2), PP1 vs untreated [1, 2] | Difference (log2), untreated vs GFP (GFP-14-3-3β) [log2] | Difference (log2), PP1 vs untreated [1] [log2]
1 | TRIM26 (protein, UniProt Q12899 1-539, looked up) Tripartite motif-containing …: MATSAPLRSLEEEVTCSICLDYLRDPVTIDCGHVFCRSCTTDVRPISGSRPVCPLCKKPFKKENIRPVWQLASLVENIERLKVDKGRQPGEVTREQQDAKLCERHREKLHYYCEDDGKLLCVMCRESREHRPHTAVLMEKAAQPHREKILNHLSTLRRDRDKIQGFQAKGEADILAALKKLQDQRQYIVAEFEQGHQFLREREEHLLEQLAKLEQELTEGREKFKSRGVGELARLALVISELEGKAQQPAAELMQDTRDFLNRYPRKKFWVGKPIARVVKKKTGEFSDKLLSLQRGLREFQGKLLRDLEYKTVSVTLDPQSASGYLQLSEDWKCVTYTSLYKSAYLHPQQFDCEPGVLGSKGFTWGKVYWEVEVEREGWSEDEEEGDEEEEGEEEEEEEEAGYGDGYDDWETDEDEESLGDEEEEEEEEEEEVLESCMVGVARDSVKRKGDLSLRPEDGVWALRLSSSGIWANTSPEAELFPALRPRRVGIALDYEGGTVTFTNAESQELIYTFTATFTRRLVPFLWLKWPGTRLLLRP | -0.363 | 2.003 | – | –
2 | USP53 (protein, UniProt Q70EK8 1-1073, looked up) Ubiquitin carboxyl-terminal …: MAWVKFLRKPGGNLGKVYQPGSMLSLAPTKGLLNEPGQNSCFLNSAVQVLWQLDIFRRSLRVLTGHVCQGDACIFCALKTIFAQFQHSREKALPSDNIRHALAESFKDEQRFQLGLMDDAAECFENMLERIHFHIVPSRDADMCTSKSCITHQKFAMTLYEQCVCRSCGASSDPLPFTEFVRYISTTALCNEVERMLERHERFKPEMFAELLQAANTTDDYRKCPSNCGQKIKIRRVLMNCPEIVTIGLVWDSEHSDLTEAVVRNLATHLYLPGLFYRVTDENAKNSELNLVGMICYTSQHYCAFAFHTKSSKWVFFDDANVKEIGTRWKDVVSKCIRCHFQPLLLFYANPDGTAVSTEDALRQVISWSHYKSVAENMGCEKPVIHKSDNLKENGFGDQAKQRENQKFPTDNISSSNRSHSHTGVGKGPAKLSHIDQREKIKDISRECALKAIEQKNLLSSQRKDLEKGQRKDLGRHRDLVDEDLSHFQSGSPPAPNGFKQHGNPHLYHSQGKGSYKHDRVVPQSRASAQIISSSKSQILAPGEKITGKVKSDNGTGYDTDSSQDSRDRGNSCDSSSKSRNRGWKPMRETLNVDSIFSESEKRQHSPRHKPNISNKPKSSKDPSFSNWPKENPKQKGLMTIYEDEMKQEIGSRSSLESNGKGAEKNKGLVEGKVHGDNWQMQRTESGYESSDHISNGSTNLDSPVIDGNGTVMDISGVKETVCFSDQITTSNLNKERGDCTSLQSQHHLEGFRKELRNLEAGYKSHEFHPESHLQIKNHLIKRSHVHEDNGKLFPSSSLQIPKDHNAREHIHQSDEQKLEKPNECKFSEWLNIENSERTGLPFHVDNSASGKRVNSNEPSSLWSSHLRTVGLKPETAPLIQQQNIMDQCYFENSLSTECIIRSASRSDGCQMPKLFCQNLPPPLPPKKYAITSVPQSEKSESTPDVKLTEVFKATSHLPKHSLSTASEPSLEVSTHMNDERHKETFQVRECFGNTPNCPSSSSTNDFQANSGAIDAFCQPELDSISTCPNETVSLTTYFSVDSCMTDTYRLKYHQRPKLSFPESSGFCNNSLS | 5.4971 | 1.978 | – | –
3 | RRP12 (protein, UniProt Q5JTH9 1-1297, looked up) RRP12-like protein: MGRSGKLPSGVSAKLKRWKKGHSSDSNPAICRHRQAARSRFFSRPSGRSDLTVDAVKLHNELQSGSLRLGKSEAPETPMEEEAELVLTEKSSGTFLSGLSDCTNVTFSKVQRFWESNSAAHKEICAVLAAVTEVIRSQGGKETETEYFAALMTTMEAVESPESLAAVAYLLNLVLKRVPSPVLIKKFSDTSKAFMDIMSAQASSGSTSVLRWVLSCLATLLRKQDLEAWGYPVTLQVYHGLLSFTVHPKPKIRKAAQHGVCSVLKGSEFMFEKAPAHHPAAISTAKFCIQEIEKSGGSKEATTTLHMLTLLKDLLPCFPEGLVKSCSETLLRVMTLSHVLVTACAMQAFHSLFHARPGLSTLSAELNAQIITALYDYVPSENDLQPLLAWLKVMEKAHINLVRLQWDLGLGHLPRFFGTAVTCLLSPHSQVLTAATQSLKEILKECVAPHMADIGSVTSSASGPAQSVAKMFRAVEEGLTYKFHAAWSSVLQLLCVFFEACGRQAHPVMRKCLQSLCDLRLSPHFPHTAALDQAVGAAVTSMGPEVVLQAVPLEIDGSEETLDFPRSWLLPVIRDHVQETRLGFFTTYFLPLANTLKSKAMDLAQAGSTVESKIYDTLQWQMWTLLPGFCTRPTDVAISFKGLARTLGMAISERPDLRVTVCQALRTLITKGCQAEADRAEVSRFAKNFLPILFNLYGQPVAAGDTPAPRRAVLETIRTYLTITDTQLVNSLLEKASEKVLDPASSDFTRLSVLDLVVALAPCADEAAISKLYSTIRPYLESKAHGVQKKAYRVLEEVCASPQGPGALFVQSHLEDLKKTLLDSLRSTSSPAKRPRLKCLLHIVRKLSAEHKEFITALIPEVILCTKEVSVGARKNAFALLVEMGHAFLRFGSNQEEALQCYLVLIYPGLVGAVTMVSCSILALTHLLFEFKGLMGTSTVEQLLENVCLLLASRTRDVVKSALGFIKVAVTVMDVAHLAKHVQLVMEAIGKLSDDMRRHFRMKLRNLFTKFIRKFGFELVKRLLPEEYHRVLVNIRKAEARAKRHRALSQAAVEEEEEEEEEEEPAQGKGDSIEEILADSEDEEDNEEEERSRGKEQRKLARQRSRAWLKEGGGDEPLNFLDPKVAQRVLATQPGPGRGRKKDHGFKVSADGRLIIREEADGNKMEEEEGAKGEDEEMADPMEDVIIRNKKHQKLKHQKEAEEEELEIPPQYQAGGSGIHRPVAKKAMPGAEYKAKKAKGDVKKKGRPDPYAYIPLNRSKLNRRKKMKLQGQFKGLVKAARRGSQVGHKNRRKDRRP | – | – | 0.888 | 0.1167
4 | ADAR (protein, UniProt P55265 1-1226, looked up) Double-stranded RNA-specific …: MNPRQGYSLSGYYTHPFQGYEHRQLRYQQPGPGSSPSSFLLKQIEFLKGQLPEAPVIGKQTPSLPPSLPGLRPRFPVLLASSTRGRQVDIRGVPRGVHLRSQGLQRGFQHPSPRGRSLPQRGVDCLSSHFQELSIYQDQEQRILKFLEELGEGKATTAHDLSGKLGTPKKEINRVLYSLAKKGKLQKEAGTPPLWKIAVSTQAWNQHSGVVRPDGHSQGAPNSDPSLEPEDRNSTSVSEDLLEPFIAVSAQAWNQHSGVVRPDSHSQGSPNSDPGLEPEDSNSTSALEDPLEFLDMAEIKEKICDYLFNVSDSSALNLAKNIGLTKARDINAVLIDMERQGDVYRQGTTPPIWHLTDKKRERMQIKRNTNSVPETAPAAIPETKRNAEFLTCNIPTSNASNNMVTTEKVENGQEPVIKLENRQEARPEPARLKPPVHYNGPSKAGYVDFENGQWATDDIPDDLNSIRAAPGEFRAIMEMPSFYSHGLPRCSPYKKLTECQLKNPISGLLEYAQFASQTCEFNMIEQSGPPHEPRFKFQVVINGREFPPAEAGSKKVAKQDAAMKAMTILLEEAKAKDSGKSEESSHYSTEKESEKTAESQTPTPSATSFFSGKSPVTTLLECMHKLGNSCEFRLLSKEGPAHEPKFQYCVAVGAQTFPSVSAPSKKVAKQMAAEEAMKALHGEATNSMASDNQPEGMISESLDNLESMMPNKVRKIGELVRYLNTNPVGGLLEYARSHGFAAEFKLVDQSGPPHEPKFVYQAKVGGRWFPAVCAHSKKQGKQEAADAALRVLIGENEKAERMGFTEVTPVTGASLRRTMLLLSRSPEAQPKTLPLTGSTFHDQIAMLSHRCFNTLTNSFQPSLLGRKILAAIIMKKDSEDMGVVVSLGTGNRCVKGDSLSLKGETVNDCHAEIISRRGFIRFLYSELMKYNSQTAKDSIFEPAKGGEKLQIKKTVSFHLYISTAPCGDGALFDKSCSDRAMESTESRHYPVFENPKQGKLRTKVENGEGTIPVESSDIVPTWDGIRLGERLRTMSCSDKILRWNVLGLQGALLTHFLQPIYLKSVTLGYLFSQGHLTRAICCRVTRDGSAFEDGLRHPFIVNHPKVGRVSIYDSKRQSGKTKETSVNWCLADGYDLEILDGTRGTVDGPRNELSRVSKKNIFLLFKKLCSFRYRRDLLRLSYGEAKKAARDYETAKNYFKKGLKDMGYGNWISKPQEEKNFYLCPV | – | – | 1.541 | 0.1214
5 | SLC39A7 (protein, UniProt Q92504 1-469, looked up) Zinc transporter SLC39A7: MARGLGAPHWVAVGLLTWATLGLLVAGLGGHDDLHDDLQEDFHGHSHRHSHEDFHHGHSHAHGHGHTHESIWHGHTHDHDHGHSHEDLHHGHSHGYSHESLYHRGHGHDHEHSHGGYGESGAPGIKQDLDAVTLWAYALGATVLISAAPFFVLFLIPVESNSPRHRSLLQILLSFASGGLLGDAFLHLIPHALEPHSHHTLEQPGHGHSHSGQGPILSVGLWVLSGIVAFLVVEKFVRHVKGGHGHSHGHGHAHSHTRGSHGHGRQERSTKEKQSSEEEEKETRGVQKRRGGSTVPKDGPVRPQNAEEEKRGLDLRVSGYLNLAADLAHNFTDGLAIGASFRGGRGLGILTTMTVLLHEVPHEVGDFAILVQSGCSKKQAMRLQLLTAVGALAGTACALLTEGGAVGSEIAGGAGPGWVLPFTAGGFIYVATVSVLPELLREASPLQSLLEVLGLLGGVIMMVLIAHLE | – | – | 0.9479 | 0.1123
6 | PRPF6 (protein, UniProt O94906 1-941, looked up) Pre-mRNA-processing factor 6: MNKKKKPFLGMPAPLGYVPGLGRGATGFTTRSDIGPARDANDPVDDRHAPPGKRTVGDQMKKNQAADDDDEDLNDTNYDEFNGYAGSLFSSGPYEKDDEEADAIYAALDKRMDERRKERREQREKEEIEKYRMERPKIQQQFSDLKRKLAEVTEEEWLSIPEVGDARNKRQRNPRYEKLTPVPDSFFAKHLQTGENHTSVDPRQTQFGGLNTPYPGGLNTPYPGGMTPGLMTPGTGELDMRKIGQARNTLMDMRLSQVSDSVSGQTVVDPKGYLTDLNSMIPTHGGDINDIKKARLLLKSVRETNPHHPPAWIASARLEEVTGKLQVARNLIMKGTEMCPKSEDVWLEAARLQPGDTAKAVVAQAVRHLPQSVRIYIRAAELETDIRAKKRVLRKALEHVPNSVRLWKAAVELEEPEDARIMLSRAVECCPTSVELWLALARLETYENARKVLNKARENIPTDRHIWITAAKLEEANGNTQMVEKIIDRAITSLRANGVEINREQWIQDAEECDRAGSVATCQAVMRAVIGIGIEEEDRKHTWMEDADSCVAHNALECARAIYAYALQVFPSKKSVWLRAAYFEKNHGTRESLEALLQRAVAHCPKAEVLWLMGAKSKWLAGDVPAARSILALAFQANPNSEEIWLAAVKLESENDEYERARRLLAKARSSAPTARVFMKSVKLEWVQDNIRAAQDLCEEALRHYEDFPKLWMMKGQIEEQKEMMEKAREAYNQGLKKCPHSTPLWLLLSRLEEKIGQLTRARAILEKSRLKNPKNPGLWLESVRLEYRAGLKNIANTLMAKALQECPNSGILWSEAIFLEARPQRRTKSVDALKKCEHDPHVLLAVAKLFWSQRKITKAREWFHRTVKIDSDLGDAWAFFYKFELQHGTEEQQEEVRKRCESAEPRHGELWCAVSKDIANWQKKIGDILRLVAGRIKNTF | – | – | 1.324 | 0.1336

Source: article PMC7367873, “Dissecting the sequence determinants for dephosphorylation by the catalytic subunits of phosphatases PP1 and PP2A” (Nature Communications, 2020)
